This is an account of results in doi:10.1101/794511 (bioRxiv, 2019).

The labels stand for the following.
B1: Ascl1 amino acids 92-231 containing the bHLH domain, His-tagged (domain or fragment)
chain: MRCKRRLNFSGFGYSLPQQQPAAVARRNERERNRVKLVNLGFATLREHVPNGAANKKMSKVETLRSAVEYIRALQQLLDEHDAVSAAFQAGVLSPTISPNYSNDLNSMAGSPVSSYSSDEGSYDPLSPEEQELLDFTNWF
B2: Gsx2^N253A amino acids 167-305 containing the mutated homeodomain, His-tagged (domain or fragment)
chain: not shown

The series “native gel or EMSA” concerns the molecule itself. Description: native gel or EMSA. (In general: Mobility shift assays separate free from complexed probe on a gel.)
For series [1], the target named is B1. Kind of series: native gel or EMSA.

Regarding B1, in “native gel or EMSA”, the binding result is “binds”.

B2: the binding result in series [1] is given as “binds”.
